Test results published in PMC12207370, “Macrocyclic Peptide Probes for Immunomodulatory Protein CD59: Potent Modulators of Bacterial Toxin Activity and Antibody‐Dependent Cytotoxicity” (Angewandte Chemie (International Ed. in English), 2025).

Molecular target: T1, biotinylated CD59 (Homo sapiens, UniProt P13987)
T1 construct: Recombinant soluble human CD59 with an additional C-terminal cysteine residue
T1 sequence (P13987 26-102 limits assumed): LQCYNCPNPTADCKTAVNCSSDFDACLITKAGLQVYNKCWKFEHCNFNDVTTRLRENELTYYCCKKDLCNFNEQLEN
Assay: mRNA-display cyclic peptide screen against CD59-biotin, NGS abundance after 6th selection round
Settings: for Counts (raw counts for peptide sequence), Seq I: NGS sample Seq I; for Counts (raw counts for peptide sequence), Seq I / Counts (raw counts for peptide sequence), Seq II / Counts Seq I / Counts Seq II: sheet R6 (6th selection round); for Counts (raw counts for peptide sequence), Seq II: NGS sample Seq II; for Percentage of the pool, averaged across the two sequencing samples: average of Seq I and Seq II; for Percentage of the pool, averaged across the two sequencing samples / Percentage of the pool, Seq I / Percentage of the pool, Seq II / Percentage Seq I / Percentage Seq II / Percentage Average: sheet R6; for Percentage of the pool, Seq I: counts normalised by total counts of NGS sample Seq I; for Percentage of the pool, Seq II: counts normalised by total counts of NGS sample Seq II; for Percentage Seq I: counts normalised by total counts of sample Seq I; for Percentage Seq I / Percentage Seq II: percentage of the pool; for Percentage Seq II: counts normalised by total counts of sample Seq II; for Percentage Average: percentage of the pool averaged across the two sequencing samples; for Counts Seq I / Counts Seq II: raw NGS counts of peptide sequence; for Counts Seq I: sequencing sample Seq I; for Counts Seq II: sequencing sample Seq II
From the text: To discover novel non‐protein CD59 ligands, we screened a library of 10^12 cyclic peptides against CD59 using mRNA‐display (Figure 2a).^[ [23], [24], [25], [26], [27], [28], [29] ^] Briefly, an mRNA library was designed in which the start codon was reprogrammed from Met to N‐chloroacetyl‐D‐Tyr (ClAc‐D‐Tyr), followed by 10–12 randomly encoded natural amino acids, a Cys residue, a (GlySer)3 linker, and a stop codon. […] The total library diversity was 1.51 × 10^13 molecules, comprising 5.02 × 10^12 molecules of each macrocycle size, covering a subset of the maximum theoretical diversity of this library design. Following in vitro translation, ClAc‐D‐Tyr spontaneously reacts with either the C‐terminal Cys or a Cys in the random region, yielding macrocyclic thioether peptides. Hits from the library were identified through iterative enrichment and amplification against biotinylated CD59, then immobilized on streptavidin beads. Fifteen hit sequences (CP‐01 to CP‐15), enriched with abundance >1% relative to the total pool of recovered binders after the 6th round of selection, were synthesized by solid phase peptide synthesis (SPPS), without the (Gly‐Ser)3 linker.
Figure 2 Discovery of macrocyclic peptide ligands with nanomolar CD59 affinity using mRNA display. a) The selection process. PCR = polymerase chain reaction, SPPS = solid phase peptide synthesis. b) Table showing details of the peptides with nanomolar affinity for CD59 as well as the binding affinity of the lead inhibitor of CD59, rILYd4. K D values are presented as the average of three technical replicates ± SEM. Structures of all peptides and SPR sensograms are presented in Figures S1 and S2. *indicates the presented sequences are the variable regions of these cyclic peptides; each is flanked by an N‐terminal Ac‐D‐Tyr cyclized to a C‐terminal Cys. R6 abundance (%) is defined as (the given number of NGS reads for a given sequence/the total number of reads of unique sequences observed in NGS)*100 following the 6th selection round. c) Representative sensogram of the interaction between CP‐06 with immobilized CD59 by SPR analysis. Inset showing the equilibrium binding curve of CP‐06 to CD‐59. Below in the box are the association and dissociation rate constants of CP‐06. Concentrations are plotted in descending order from 800‐3.1 nM in line with their position on the legend. […] (nM)'; the box with Kon/Koff has no label of its own / ILYd4: the label may be cut off at the left edge (possibly 'rILYd4') / CP-02, KD: 15.3 ± 0.2, small print, 3 or 8 uncertain / CP-03, KD: 23.4 ± 0.7, small print / CP-06, KD: 11.3 ± 0.0, small print, 3 or 8 uncertain / CP-13, KD: 10.8 ± 0.7, small print, 8 or 6 uncertain / ILYd4, KD: 48.3 ± 1.1, small print, 8 and 3 uncertain
The mRNA-display cyclic peptide screen was performed against CD59-biotin by T.E.M: DNA templates for transcription were generated by PCR in a similar manner to that previously described.^2 RNA oligonucleotides were transcribed from the DNA templates using T7 RNA polymerase and purified by phenol/chloroform extraction followed by ethanol precipitation. Oligonucleotide concentrations were determined spectroscopically by absorbance at 260 nm. In the first selection round a 1:1:1 molar ratio of NNK10/NNK11/NNK12 was used. The procedure for selection rounds 2-6 is described below; round 1 was conducted at twice the scale.
RNA encoding for the peptide library ligated to a puromycin-modified oligonucleotide was […] (final [RNA] = 2.5 µM) using a customised PURE express kit (lacking release factor 1 and methionine, supplemented with […] initiator tRNA acylated with N-chloroacetyl-d-tyrosine prepared as previously described)^3 in a final volume of 5.6 µL for 1 hour at 37 °C.
This mixture was incubated at 42 °C for 1 hour before being diluted to 500 µL with PBS (10 mM Na-PO4 pH 7.4, 2.7 mM KCl, 137 mM NaCl) and 0.5 µL taken for subsequent use in qPCR. […]

| Sequence | Counts (raw counts for peptide sequence), Seq I | Counts (raw counts for peptide sequence), Seq II | Percentage of the pool, averaged across the two sequencing samples | Percentage of the pool, Seq I | Percentage of the pool, Seq II | Percentage Seq I | Percentage Seq II | Percentage Average | Counts Seq I | Counts Seq II |
| --- | --- | --- | --- | --- | --- | --- | --- | --- | --- | --- |
| FVRGNRYSVLG | 64 | 5 | 0.013% | 0.015% | 0.012% |  |  |  |  |  |
| FVRGDLYSVLS | 43 | 4 | 0.010% | 0.010% | 0.009% |  |  |  |  |  |
| CLDKWGRLWT |  |  |  |  |  | 0.042% | 0.042% | 0.042% | 182 | 18 |
| CFSRRLTAGAT |  |  |  |  |  | 0.045% | 0.035% | 0.040% | 195 | 15 |
| GYLNECWYGLS |  |  |  |  |  | 0.101% | 0.081% | 0.091% | 441 | 35 |
| CFAHRITDPNTQ |  |  |  |  |  | 0.027% | 0.014% | 0.020% | 117 | 6 |
| FIFGNRNWTFG |  |  |  |  |  | 0.021% | 0.021% | 0.021% | 94 | 9 |
| RVGSQFCAQL | 33 | 9 | 0.014% | 0.00754% | 0.021% |  |  |  |  |  |
| WIRGNRDESLG | 46 | 7 | 0.013% | 0.011% | 0.016% |  |  |  |  |  |
| CYGGRTFIYAWT |  |  |  |  |  | 0.043% | 0.035% | 0.039% | 190 | 15 |
| LCSVRGSNDWI |  |  |  |  |  | 0.073% | 0.074% | 0.074% | 320 | 32 |
| SAWGNRQIQCY | 55 | 5 | 0.012% | 0.013% | 0.012% |  |  |  |  |  |
| GYLNECHALYTR | 63 | 9 | 0.018% | 0.014% | 0.021% |  |  |  |  |  |
| YLSGSSNFTRG |  |  |  |  |  | 0.042% | 0.044% | 0.043% | 184 | 19 |
| VIWGSRLATGG |  |  |  |  |  | 0.025% | 0.026% | 0.025% | 109 | 11 |
| CFLNRASFSGI | 60 | 6 | 0.014% | 0.014% | 0.014% |  |  |  |  |  |
| SACGNRQIQYY | 51 | 6 | 0.013% | 0.012% | 0.014% |  |  |  |  |  |

| Sequence | Counts (raw counts for peptide sequence), Seq I | Counts (raw counts for peptide sequence), Seq II | Percentage of the pool, averaged across the two sequencing samples | Percentage of the pool, Seq I | Percentage of the pool, Seq II | Percentage Seq I | Percentage Seq II | Percentage Average | Counts Seq I | Counts Seq II |
| --- | --- | --- | --- | --- | --- | --- | --- | --- | --- | --- |
| YLSGSSNFARG | 48 | 7 | 0.014% | 0.011% | 0.016% |  |  |  |  |  |
| CFSQRLDRTSS |  |  |  |  |  | 0.027% | 0.026% | 0.026% | 116 | 11 |
| CFAKRLSLDAL |  |  |  |  |  | 0.177% | 0.176% | 0.177% | 774 | 76 |
| CLDKWGRLWS |  |  |  |  |  | 0.911% | 0.754% | 0.833% | 3987 | 325 |
| YVRGDAWTVLG |  |  |  |  |  | 0.027% | 0.019% | 0.023% | 117 | 8 |
| FVRGDLYSVIG | 54 | 6 | 0.013% | 0.012% | 0.014% |  |  |  |  |  |
| SYGGRTFIYAWS | 62 | 5 | 0.013% | 0.014% | 0.012% |  |  |  |  |  |
| HVFGNRSYTRG | 46 | 7 | 0.013% | 0.011% | 0.016% |  |  |  |  |  |
| DCWVRGSRNYT | 62 | 6 | 0.014% | 0.014% | 0.014% |  |  |  |  |  |
| VARGSKDWRWS | 41 | 6 | 0.012% | 0.009% | 0.014% |  |  |  |  |  |
| LLGSSSYVKFWY |  |  |  |  |  | 0.253% | 0.265% | 0.259% | 1105 | 114 |
| LYSHPRSLCSFS |  |  |  |  |  | 0.082% | 0.091% | 0.086% | 357 | 39 |
| RRDRFDQCVL | 33 | 5 | 0.010% | 0.00754% | 0.012% |  |  |  |  |  |
| CFTLRLSQTSV |  |  |  |  |  | 0.156% | 0.160% | 0.158% | 682 | 69 |
| WRDRFDRCVL |  |  |  |  |  | 0.020% | 0.032% | 0.026% | 86 | 14 |
| CPRYVSRGFA | 72 | 5 | 0.014% | 0.016% | 0.012% |  |  |  |  |  |
